Measured values as given in US20040253243.

Tests used:
PDGF-AB (Homo sapiens) = PDGF-AB (Homo sapiens) (UniProt P04085+P01127); details: [PEG40K]-NH2-dCdAdGdGdCfUdAfCmG-PEG-dCdGTdAmGdAmGdCdAfUfCmA-PEG-TdGdATfCfCfUmG-3T (f 2'-F, m 2'-OMe, d deoxy; PEG spacers)
PDGF-BB (Homo sapiens) = PDGF-BB (Homo sapiens) (UniProt P01127); details: [PEG40K]-NH2-dCdAdGdGdCfUdAfCmG-PEG-dCdGTdAmGdAmGdCdAfUfCmA-PEG-TdGdATfCfCfUmG-3T (f 2'-F, m 2'-OMe, d deoxy; PEG spacers)
Chain of PDGF-BB (Homo sapiens) (P01127 82-190): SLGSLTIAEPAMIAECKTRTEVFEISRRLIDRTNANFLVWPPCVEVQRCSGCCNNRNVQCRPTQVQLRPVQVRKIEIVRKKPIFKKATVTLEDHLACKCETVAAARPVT

Chain of PDGF-AB (Homo sapiens) (P01127 82-190, chain 2 of 2, other chains not shown): as the sequence (P01127 82-190) above

With CAGGCUACGCGTAGAGCAUCATGATCCUG [ARC127] the Kd (PDGF-AB (Homo sapiens)) was 100 pM and the Kd (PDGF-BB (Homo sapiens)) was 100 pM.
